Source: US20240352111A1 (Regeneron, published 2024)
Positions count from the first letter of the chain named. Each block holds one binder with its values, some of them ahead of it.

Columns and labels:
mArtemin-MMH [1] = target: T1, mArtemin-MMH (mouse); experiment: SPR Biacore T200, mArtemin-MMH captured by anti-myc mAb, mAb injected, 25 C
T1 construct: also called msArtemin-MMH; msARTN.mmh
T1 chain: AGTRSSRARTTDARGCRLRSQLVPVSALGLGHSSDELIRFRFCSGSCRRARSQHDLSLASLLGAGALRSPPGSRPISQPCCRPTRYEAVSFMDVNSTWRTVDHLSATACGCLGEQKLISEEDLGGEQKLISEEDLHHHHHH
Experimental: The equilibrium dissociation constant (KD) for Artemin binding to each of Artemin monoclonal antibodies (mAbs) H4H33331P, H4H33335P, H4H33336P, and H4H33349P was determined using a real-time surface plasmon resonance Biacore T200 biosensor. All binding studies were performed in 10 mM HEPES, 150 mM NaCl, 3 mM EDTA, and 0.05% v/v Surfactant Tween-20, pH 7.4 (HBS-ET) running buffer at 25° C. The Biacore CM4 sensor chip surface was first derivatized by amine coupling with anti-myc mAb to capture hArtemin-MMH, MfArtemin-MMH, or mArtemin-MMH. Different concentrations of Artemin mAbs (60-2.2 nM, 3-fold serial dilution) prepared in […] running buffer were injected over the Artemin-captured surfaces for 3 min at a flow rate of 50 μL/min and their dissociation in HBS-ET running buffer was monitored for 5 minutes. At the end of each cycle, the Artemin-captured surfaces were regenerated using a 6 sec injection of 20 mM phosphoric acid.
The association rate (kₐ) and dissociation rate (kd) were determined by fitting the real-time binding sensorgrams to a 1:1 binding model with mass transport limitation using Scrubber 2.0c curve-fitting software. Binding dissociation equilibrium constant (KD) and dissociative half-life (t½) were calculated from the kinetic rates as: KD (M)=kd/kₐ, and t_{1/2} (min)=[In2/(60*kd)].

hArtemin-MMH [2] = target: T2, hArtemin-MMH (human); experiment: BLI (Octet HTX), mAb captured on AHC tips, artemin at 15 nM, 25 C
T2 construct: also called hARTN.mmh; hARTN (A108-G220).mmh
T2 chain: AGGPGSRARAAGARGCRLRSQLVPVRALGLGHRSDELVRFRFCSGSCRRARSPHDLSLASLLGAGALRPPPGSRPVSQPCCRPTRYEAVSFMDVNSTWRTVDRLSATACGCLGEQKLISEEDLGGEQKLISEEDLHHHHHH
Experimental: (§1) The entire experiment was performed at 25° C. in 10 mM HEPES, 150 mM NaCl, 3 mM EDTA, 0.02% NaN3 and 0.05% v/v Surfactant Tween-20, 1 mg/mL BSA, pH7.4 (HBS-EBT) buffer with the plate shaking at a speed of 1000 rpm. Different Artemin mAbs were first captured onto anti-human antibody (AHC) coated Octet biosensor tips (Fortebio Inc, #18-5064) by submerging the biosensor tips for 40 seconds in wells containing 2 μg/mL of Artemin mAb. […] All the Artemin and Artemin mAb samples were prepared in HBS-EBT buffer. The real-time binding response was monitored during the entire course of the experiment and the binding response at the end of every step was recorded.

mArtemin-MMH [3] = target: T1, mArtemin-MMH; experiment: as above
Experimental: as §1

MfArtemin-MMH [4] = target: T3, MfArtemin-MMH (cynomolgous monkey (Macaca fascicularis)); experiment: as above
T3 construct: also called mfARTN.mmh; mfARTN (A108-G22).mmh
T3 chain: T2 chain with A8P, V76I
Experimental: as §1

MfArtemin-MMH [5] = target: T3, MfArtemin-MMH; experiment: blocking ELISA, antibody blocks 400 pM mfARTN.mmh binding to plate-coated hGFRa3.hFc
Experimental: (§2) Experiments were carried out using the following procedures. Plates were coated with hGFRa3.hFc at 2 μg/ml in PBS on a 96-well microtiter plate at 4° C. overnight for all three assays. […] In other microtiter plates, a constant amount of either 75 pM hARTN.mmh, 400 pM mfARTN.mmh, or 150 pM msARTN.mmh were separately bound with anti-ARTN antibodies and an irrelevant IgG4 antibody control at a serial dilution series from 0.0017 nM to 100 nM in PBS+0.5% BSA. After a one-hour incubation, the mixture solutions were transferred to microtiter plates coated with hGFRa3.hFc. After one hour of incubation at RT, the wells were washed with PBST, and plate-bound ARTN was detected with an anti-penta-His antibody conjugated with horseradish peroxidase (HRP) (Qiagen). The plates were then developed using TMB substrate solution (BD Biosciences, #555214) according to manufacturer's recommendation and absorbance at 450 nm was measured on a Victor X5 plate reader.
(§3) Binding data were analyzed using a sigmoidal dose-response model within Prism™ software (GraphPad). […] If the calculated IC50 value was below the LLOA, less than LLOA was reported. Percent blocking at 100 nM antibody was calculated based on the background-corrected binding signal observed at the highest antibody concentration tested using the formula listed below and reported for all tested antibodies: […]

MfArtemin-MMH [6] = target: T3, MfArtemin-MMH; experiment: BLI (Octet HTX), mAb captured on AHC tips, artemin at 30 nM, 25 C
Experimental: as §1

mArtemin-MMH [7] = target: T1, mArtemin-MMH; experiment: blocking ELISA, antibody blocks 150 pM msARTN.mmh binding to plate-coated hGFRa3.hFc; * below lower limit of assay (3.75E-11 M)
Experimental: as §2, §3

hArtemin-MMH [8] = target: T2, hArtemin-MMH; experiment: BLI (Octet HTX), mAb captured on AHC tips, artemin at 7.5 nM, 25 C
Experimental: as §1

mArtemin-MMH [9] = target: T1, mArtemin-MMH; experiment: as above
Experimental: as §1

MfArtemin-MMH [10] = target: T3, MfArtemin-MMH; experiment: as above
Experimental: as §1

MfArtemin-MMH [11] = target: T3, MfArtemin-MMH; experiment: blocking ELISA, antibody blocks 400 pM mfARTN.mmh binding to plate-coated hGFRa3.hFc; * below lower limit of assay (1.00E-10 M)
Experimental: as §2, §3

60 nM Artemin mAb Bound (RU) (mArtemin-MMH [1]): 7 RU
Kd (mArtemin-MMH [1]): 346 pM
koff (mArtemin-MMH [1]): 5.4e-05 s⁻¹
kon (mArtemin-MMH [1]): 156000 M⁻¹ s⁻¹
t½ (mArtemin-MMH [1]): 3.57 h
Artemin Binding Response (nm) (hArtemin-MMH [2]): 0.11 nm
Artemin Binding Response (nm) (mArtemin-MMH [3]): 0.08 nm
Artemin Binding Response (nm) (MfArtemin-MMH [4]): 0.03 nm
% Blocking with 100 nM Ab (MfArtemin-MMH [5]): 90%
IC50 (MfArtemin-MMH [5]): 105 pM
Artemin Binding Response (nm) (MfArtemin-MMH [6]): 0.09 nm
IC50 (mArtemin-MMH [7]): < 37.5 pM
Artemin Binding Response (nm) (hArtemin-MMH [8]): 0.07 nm
Artemin Binding Response (nm) (mArtemin-MMH [9]): 0.07 nm
Artemin Binding Response (nm) (MfArtemin-MMH [10]): 0.01 nm
B1: H4H33331P (antibody, human IgG4 S228P, kappa, V domains shown)
VH: EVQLVESGGDLVQPGGSLKLSCAASGFTFSGSAMHWVRQASGKGLEWVGRIRNKVHRYATEYGASVKGRFTISRDDSKNTAYLQMNSLKIEDTAVYYCVVVVPGSIEAFDIWGQGTMVTVSS
VL: DIQMTQSPSSLSASVGDRVTITCRASQSISTYLNWYQQKPGKAPNLLIYAASTLESGVPSRFSGSGSGTDFTLTISSLQPEDFEIYYCQQSYNIPWTFGQGTKVEIKR
notes: Fully human antibody (human variable and constant domains) from a VELOCIMMUNE mouse; also called Artemin mAb; anti-ARTN antibody

60 nM Artemin mAb Bound (RU) (mArtemin-MMH [1]): 20 RU
Kd (mArtemin-MMH [1]): 113 pM
koff (mArtemin-MMH [1]): 5.91e-05 s⁻¹
kon (mArtemin-MMH [1]): 521000 M⁻¹ s⁻¹
t½ (mArtemin-MMH [1]): 3.25 h
Artemin Binding Response (nm) (hArtemin-MMH [2]): 0.11 nm
Artemin Binding Response (nm) (mArtemin-MMH [3]): 0.11 nm
Artemin Binding Response (nm) (MfArtemin-MMH [4]): 0.09 nm
% Blocking with 100 nM Ab (MfArtemin-MMH [5]): 88%
Artemin Binding Response (nm) (MfArtemin-MMH [6]): 0.12 nm
IC50 (mArtemin-MMH [7]): 7.65 pM
IC50 (MfArtemin-MMH [11]): 30.2 pM
Artemin Binding Response (nm) (hArtemin-MMH [8]): 0.11 nm
Artemin Binding Response (nm) (mArtemin-MMH [9]): 0.11 nm
Artemin Binding Response (nm) (MfArtemin-MMH [10]): 0.04 nm
B2: H4H33349P (antibody, human IgG4 S228P, kappa, V domains shown)
VH: QVQLVESGGGVVQPGRSLRLSCEASGFTFSDYDLHWVRQAPGKGLEWVAFISNDGSNEYYPKSVKGRFSISRDNSKNTLYLQMNSLRAEDTAVYHCTKERDYYYDSSGSLDYWGQGTLVTVSS
VL: DIQMTQSPSSLSASVGDRVTITCRASQTINNYLNWYQQKPGKAPKLLIYTTSGLQSGVPSRFSGRGSGTDFTLAISSLQPEDFATYYCQQSYHSPFTFGPGTKVDIKR
notes: Fully human antibody; also called Artemin mAb; anti-ARTN antibody

60 nM Artemin mAb Bound (RU) (mArtemin-MMH [1]): 3 RU
Artemin Binding Response (nm) (hArtemin-MMH [2]): 0.09 nm
Artemin Binding Response (nm) (mArtemin-MMH [3]): 0.01 nm
Artemin Binding Response (nm) (MfArtemin-MMH [4]): 0.03 nm
% Blocking with 100 nM Ab (MfArtemin-MMH [5]): 86%
Artemin Binding Response (nm) (MfArtemin-MMH [6]): 0.06 nm
IC50 (MfArtemin-MMH [11]): 75 pM
Artemin Binding Response (nm) (hArtemin-MMH [8]): 0.05 nm
Artemin Binding Response (nm) (mArtemin-MMH [9]): 0 nm
Artemin Binding Response (nm) (MfArtemin-MMH [10]): 0.01 nm
B3: H4H33336P (antibody, human IgG4 S228P, kappa, V domains shown)
VH: QVQLVESGGGVVQPGRSLRLSCVASGFILSHYGMHWVRQAPGKGLEWVAVIWFDGTNKYYADSVKGRFTVSRDNSKNTLYMQMNSLRAEDTAVYYCARDPPPARRGNYNGMDVWGQGTTVTVSS
VL: DIQMTQSPSSLSASVGDRVTITCRASQDIRNDLGWYQQKPGKAPKRLIFGASSLQSGVPLRFSGSGSGTEFTLTINNLQPEDFATFYCLQDNSYPWTFGQGTKVEIKR
notes: as for B2
